Experimental data reported in patent US20210299331A1, “PLURIPOTENT STEM CELL-DERIVED PLATE-SHAPED CARTILAGE AND METHOD FOR PRODUCING THE SAME” (KYOTO UNIVERSITY, priority 2018, published 2021).

B1: FGF18: Recombinant human FGF18 (PeproTech), an FGF receptor agonist added to the culture medium (protein, UniProt O76093 28-207, looked up)
Fibroblast growth factor 18: EENVDFRIHVENQTRARDDVSRKQLRLYQLYSRTSGKHIQVLGRRISARGEDGDKYAQLLVETDTFGSQVRIKGKETEFYLCMNRKGKLVGKPDGTSKECVFIEKVLENNYTALMSAKYSGWYVGFTKKGRPRKGPKTRENQQDVHFMKRYPKGQPELQKPFKYTTVTKRSRRIRPTHPA

Assays:
[1] = system: human iPS cell line QHJI-derived cartilaginous particles; assay: In vitro integration of paired cartilaginous particles in round-bottom 96-well plate, cultured with FGFR inhibitor; format: cell-based
Description: (§1) Two cartilaginous particles were put into a well of a round-bottom 96-well plate (see FIGS. 1A and 1B) and cultured under the conditions of 37° C. and 5% CO2 in chondrogenic medium (DMEM (Sigma) with 1% ITS, 1% FBS, 2 mM L-glutamine (Thermo), 1×10^−4 M non-essential amino acids (Thermo), 1 mM sodium pyruvate (Thermo), 50 U of penicillin, […] streptomycin, 50 μg/mL ascorbic acid (Nacalai), 10 ng/mL BMP2 (Peprotech), 10 ng/mL TGFβ1 (Peprotech), and 10 ng/mL GDF5 (PTT)). In total, 84 wells, each of which contained a pair of cartilaginous particles, were prepared. The wells were divided into 7 groups (12 pairs per group), and each was subjected to macroscopic and histological analyses at the predetermined time points ([…] after the start of the integration experiment). The medium was changed every day gently and carefully so as not to change the positions of the cartilaginous particles.
To further investigate the effects of FGF on the integration, an FGFR inhibitor, NVP-BGJ398 (ChemScene LLC), was used in the culture. NVP-BGJ398 was dissolved in DMSO to prepare a 50 μM stock solution. In total, 30 new pairs of cartilaginous particles were cultured under the conditions described in the above (3). Fifteen pairs were cultured in a medium supplemented with vehicle (0.3 μL of DMSO), and the other 15 pairs were cultured in a medium supplemented with 0.3 μL of the NVP-BGJ398 stock solution (final concentration: 50 nM). After 14 days of culture, the samples were subjected to histological analysis.
(§2) The pairs of cartilaginous particles were fixed with 4% paraformaldehyde, processed, and embedded in paraffin. 20 to 150 serial sections were prepared around the integrated portion of the sample so that the sections contain the most contact area between the paired cartilaginous particles (see FIG. 1C). Serial sections with the greatest contact portion were selected and used for further analysis. The sections were stained with hematoxylin-eosin and safranin O-fast green-iron hematoxylin and immunostained with a goat anti-type I collagen antibody (Souther Biotech) and an anti-type II collagen antibody (Thermo).
(§3) For statistical analysis, the degree of integration of cartilaginous particles at each time point was graded as follows: grade 0, no integration; grade 1, perichondrium-like membrane integration; grade 2, cartilage integration (Table 2). The grades are non-parametric data, and statistical analysis was performed using the Steel-Dwass test. All the samples were graded as 0 (no integration) on day 0 and graded as 2 (cartilage integration) on day 56.

[2] = system: human iPS cell line QHJI-derived cartilaginous particles; assay: In vitro integration of paired cartilaginous particles in round-bottom 96-well plate, cultured with FGF18; format: cell-based; details: for Grade 0 No integration (number of pairs) / Grade 1 Integration by perichondrium-like membrane (number of pairs) / Grade2 Integration by cartilage (number of pairs): 15 pairs per group
Description: as §1
Recombinant human FGF18 (PeproTech) was dissolved in phosphate-buffered saline (PBS) to prepare a stock solution (100 μg/mL). In total, 90 pairs of cartilaginous particles were cultured under the conditions described in the above (3). One pair per well was cultured in 0.3 mL of medium. Forty-five pairs were cultured in a medium supplemented with vehicle (0.3 μL of PBS), and the other 45 pairs were cultured in a medium supplemented with 0.3 μL of the FGF18 stock solution (final concentration: 100 ng/mL). The 45 pairs in each treatment group were further separated into three equal-sized groups and subjected to histological analysis (3, 7, or 14 days after the start of the experiment).
as §2, §3

[3] = Day 14, NVP-BGJ398 50 nM, 15 pairs per group, P < 0.01 vs Vehicle (Steel-Dwass)
[4] = Day 14, FGF18 100 ng/mL, P < 0.01 vs Vehicle (Steel-Dwass)

| Molecule | Grade 0 No integration (number of pairs) [1, 3] | Grade 1 Integration by perichondrium-like membrane (number of pairs) [1, 3] | Grade2 Integration by cartilage (number of pairs) [1, 3] | Pairs of cartilaginous particles that showed integration ([1]; Day 14, NVP-BGJ398 50 nM, 15 pairs, vehicle 11 out of 15) | Effect of addition to the medium on integration of cartilaginous particles ([1]; NVP-BGJ398 50 nM in medium) | Grade 0 No integration (number of pairs) ([2]; Day 3, FGF18 100 ng/mL) | Grade 1 Integration by perichondrium-like membrane (number of pairs) ([2]; Day 3, FGF18 100 ng/mL) | Grade2 Integration by cartilage (number of pairs) ([2]; Day 3, FGF18 100 ng/mL) | Grade 0 No integration (number of pairs) ([2]; Day 7, FGF18 100 ng/mL) | Grade 1 Integration by perichondrium-like membrane (number of pairs) ([2]; Day 7, FGF18 100 ng/mL) | Grade2 Integration by cartilage (number of pairs) ([2]; Day 7, FGF18 100 ng/mL) | Grade 0 No integration (number of pairs) [2, 4] | Grade 1 Integration by perichondrium-like membrane (number of pairs) [2, 4] | Grade2 Integration by cartilage (number of pairs) [2, 4] | Integration of treated cartilaginous particles (observation) ([2]; Day 14, FGF18 100 ng/mL, vehicle showed minimal integration) | Integration grade versus vehicle-treated pairs (statistics) ([2]; Day 14, Steel-Dwass test) | Effect of addition to the medium on integration of cartilaginous particles ([2]; FGF18 100 ng/mL in medium) | Histological finding in treated cartilaginous particles ([2]; FGF18 100 ng/mL, safranin O-fast green-iron hematoxylin sections) |
| --- | --- | --- | --- | --- | --- | --- | --- | --- | --- | --- | --- | --- | --- | --- | --- | --- | --- | --- |
| CCN1CCN(c2ccc(Nc3cc(N(C)C(=O)Nc4c(Cl)c(OC)cc(OC)c4Cl)ncn3)cc2)CC1 [NVP-BGJ398] | 15 | 0 | 0 | no pairs | inhibited the integration of cartilaginous particles | – | – | – | – | – | – | – | – | – | – | – | – | – |
| B1 | – | – | – | – | – | 12 | 3 | 0 | 10 | 5 | 0 | 1 | 14 | 0 | substantial integration | Significant difference | accelerated the integration of cartilaginous particles | thick connection of the perichondrium-like membranes |
